# Experimental data taken from patent US20170112904A1.
# Key:
# Experiment in all cases: cell-based or functional assay
# [1] = biological target: recombinant human glucagon receptor (human) (UniProt P47871)
# [2] = biological target: human Glucagon-Like Peptide-1 receptor (human) (UniProt P43220)
# [3] = biological target: T1, human glucose-dependent insulinotropic polypeptide receptor (human) (UniProt P48546)
# T1 sequence (looked up): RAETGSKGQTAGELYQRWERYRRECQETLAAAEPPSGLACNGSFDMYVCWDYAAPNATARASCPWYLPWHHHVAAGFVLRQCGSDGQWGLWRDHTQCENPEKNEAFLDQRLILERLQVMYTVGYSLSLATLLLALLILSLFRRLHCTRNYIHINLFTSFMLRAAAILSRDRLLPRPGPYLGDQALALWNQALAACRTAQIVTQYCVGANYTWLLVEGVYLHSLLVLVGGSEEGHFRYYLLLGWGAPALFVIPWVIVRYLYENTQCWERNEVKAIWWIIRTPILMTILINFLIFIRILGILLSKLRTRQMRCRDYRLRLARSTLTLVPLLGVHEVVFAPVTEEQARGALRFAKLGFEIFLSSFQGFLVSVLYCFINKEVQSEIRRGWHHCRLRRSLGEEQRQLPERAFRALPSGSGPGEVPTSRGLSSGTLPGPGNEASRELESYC
# recombinant human glucagon receptor (human), sequence (P47871 26-477): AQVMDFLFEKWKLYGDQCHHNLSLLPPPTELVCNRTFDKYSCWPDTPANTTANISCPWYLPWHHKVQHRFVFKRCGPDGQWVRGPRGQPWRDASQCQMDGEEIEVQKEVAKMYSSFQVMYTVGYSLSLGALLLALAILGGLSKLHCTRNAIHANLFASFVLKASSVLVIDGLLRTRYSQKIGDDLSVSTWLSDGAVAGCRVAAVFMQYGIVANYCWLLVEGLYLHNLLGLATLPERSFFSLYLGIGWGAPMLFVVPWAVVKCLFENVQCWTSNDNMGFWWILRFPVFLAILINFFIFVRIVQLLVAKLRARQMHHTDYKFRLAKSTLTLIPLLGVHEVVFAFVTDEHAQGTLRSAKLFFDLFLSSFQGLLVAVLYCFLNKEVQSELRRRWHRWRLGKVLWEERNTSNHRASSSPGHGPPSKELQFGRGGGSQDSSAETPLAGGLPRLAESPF
# dulaglutide (Fc fusion), sequence (chain): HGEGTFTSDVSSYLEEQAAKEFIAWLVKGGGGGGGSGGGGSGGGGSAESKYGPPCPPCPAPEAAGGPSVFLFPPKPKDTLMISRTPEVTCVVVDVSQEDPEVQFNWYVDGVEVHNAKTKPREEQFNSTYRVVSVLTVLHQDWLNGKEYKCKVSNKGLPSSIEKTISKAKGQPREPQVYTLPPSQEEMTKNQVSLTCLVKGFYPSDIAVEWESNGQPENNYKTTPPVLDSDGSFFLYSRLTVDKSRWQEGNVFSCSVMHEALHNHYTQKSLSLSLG
# human Glucagon-Like Peptide-1 receptor (human), sequence (P43220 24-463): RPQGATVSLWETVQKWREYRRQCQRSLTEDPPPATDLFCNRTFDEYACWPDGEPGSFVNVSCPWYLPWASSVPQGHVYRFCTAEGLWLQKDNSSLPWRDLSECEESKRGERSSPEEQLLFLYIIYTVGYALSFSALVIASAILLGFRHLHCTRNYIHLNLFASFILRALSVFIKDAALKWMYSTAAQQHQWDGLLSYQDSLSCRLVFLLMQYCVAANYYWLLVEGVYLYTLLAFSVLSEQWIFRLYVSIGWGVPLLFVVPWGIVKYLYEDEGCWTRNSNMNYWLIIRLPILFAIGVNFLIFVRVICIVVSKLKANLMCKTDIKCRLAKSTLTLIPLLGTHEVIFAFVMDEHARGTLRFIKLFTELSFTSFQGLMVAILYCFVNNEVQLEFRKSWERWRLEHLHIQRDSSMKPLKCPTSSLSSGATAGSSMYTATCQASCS
substance,measurement,setting,value
dulaglutide (Fc fusion),"EC50, Gcg Receptor Assay; sample C6.5-4 C.-4 wk",[1],51.9 nM
same,"EC50, Gcg Receptor Assay; sample C6.5-40 C.-4 wk",[1],> 100 nM
same,"EC50, Gcg Receptor Assay; sample C6.5MT-4 C.-4 wk",[1],54 nM
same,"EC50, Gcg Receptor Assay; sample C6.5MT-40 C.-4 wk",[1],> 100 nM
same,"EC50, GLP-1 Receptor Assay; sample C6.5-4 C.-4 wk",[2],0.37 nM
same,"EC50, GLP-1 Receptor Assay; sample C6.5-40 C.-4 wk",[2],0.31 nM
same,"EC50, GLP-1 Receptor Assay; sample C6.5MT-4 C.-4 wk",[2],0.4 nM
same,"EC50, GLP-1 Receptor Assay; sample C6.5MT-40 C.-4 wk",[2],0.29 nM
same,"EC50, GIP Receptor Assay; sample C6.5-4 C.-4 wk",[3],> 100 nM
same,"EC50, GIP Receptor Assay; sample C6.5-40 C.-4 wk",[3],> 100 nM
same,"EC50, GIP Receptor Assay; sample C6.5MT-4 C.-4 wk",[3],> 100 nM
same,"EC50, GIP Receptor Assay; sample C6.5MT-40 C.-4 wk",[3],> 100 nM
